Assay results reported in article PMC12607617, “Self-resistance mechanism to acyldepsipeptide antibiotics in the Streptomyces producer” (mBio, 2025).

Biological target: the molecule itself
Experiment: SEC; purified S. hawaiiensis ClpP1, alone or with ClpP_(ADEP), pre-incubated with ADEP1

B1: Streptomyces hawaiiensis ClpP1, untagged (enzyme, Streptomyces hawaiiensis NRRL 15010, UniProt A0A5B9BGY8 1-219, looked up)
chain: MRRPGAVVRRAGGYVTNLMPSAAGEPSIGGGLGDQVYNRLLNERIIFLGQPVDDDIANKITAQLLLLASDPEKDIYLYINSPGGSITAGMAIYDTMQYIKNDVVTIAMGLAASMGQFLLSAGTPGKRFALPNAEILIHQPSAGLAGSASDIKIHAERLLHTKKRMAELTSQHTGQTIEQITRDSDRDRWFDAFEAKEYGLIDDVMTTAAGMPGGGGTGA
notes: ClpP1, proteolytic subunit of the Clp protease, Streptomyces hawaiiensis NRRL 15010; Printed as untagged in the pull-down; also called shClpP1
- stoichiometry N: 14
